Ends that are not written are not given here.
B2: fluorescence-marked proline-rich peptide Cys-Ser-Gly-Pro-Pro-Pro-Pro-Pro-Pro-Pro-Pro-Leu-Pro (fluorescein-maleimide label) (peptide)
peptide: C(fluorescein‑maleimide)SGPPPPPPPPLP
notes: also called fluorescence-labeled peptide; fluorescence-marked peptide
B3: synthetic proline-rich peptide Cys-Ser-Gly-Pro-Pro-Pro-Pro-Pro-Pro-Pro-Pro-Leu-Pro (peptide)
peptide: CSGPPPPPPPPLP
notes: also called CSGP8LP; proline peptide

Tests used:
[1] = molecular target: B3; assay: affinity column with peptide, crude extract, wash with 2 M NaCl, elution with 2% SDS, SDS gel
PyVP1-WW150 [2] = molecular target: T1, PyVP1-WW150 (mouse polyoma virus; Mus musculus …); assay: gel filtration (TSK gel G5000PWXL), co-elution of labelled peptide with capsids and pentamers, absorption at 490 nm
T1 construct: WW domain inserted between VP1 positions 148 and 149; Soluble pentamer after intein cleavage; also called PyVP1-WW150 variant; PyVP1-WW150 protein

PyVP1-WW150 [3] = molecular target: T1, PyVP1-WW150; assay: SPR (Biacore X), peptide on CM5 chip, Dulbecco's PBS
PyVP1-WW150-D8C = molecular target: T2, PyVP1-WW150-D8C (mouse polyoma virus; Mus musculus …); assay: surface plasmon resonance; strengthened by 500 mM ammonium sulfate
T2 construct: Position 8 is counted on the WW domain itself

PyVP1-WW150 [4] = molecular target: T1, PyVP1-WW150; assay: SPR (Biacore X), peptide on CM5 chip; summary of the three analyses of example 2
PyVP1-WW150 [5] = molecular target: T1, PyVP1-WW150; assay: SPR (Biacore X), peptide on CM5 chip, 10 mM HEPES, 1 mM EDTA, 150 mM NaCl, pH 7.2, 25 C, protein 5 to 50 nM
[6] = molecular target: B2; assay: incubation of labelled peptide with PyVP1-3C-WW[N-14], capsid assembly, gel filtration

B1: [PyVP1-3C-WW1]-intein-CBD (other)
chain: MSGWTEHKSPDGRTYYYNTETKQSTWEKPDDGHMAPKRKSGVSKSETKSTKACPRPAPVPKLLIKGGMEVLDLVTGPDSVTEIEAFLNPRMGQPPTPESLTEGGQYYGWSRGINLATSDTEDSPGNNTLPTWSMAKLQLPMLNEDLTCDTLQMWEAVSVKTEVVGSGSLLDVHGFNKPTDTVNTKGISTPVEGSQYHVFAVGGEPLDLQGLVTDARTKYKEEGVVTIKTITKKDMVNKDQVLNPISKAKLDKDGMYPVEIWHPDPAKNENTRYFGNYTGGTCTPPVLQFTNTLTTVLLDENGVGPLSKGEGLYLSSVDIMGWRVTRNYDVHHWRGLPRYFKITLRKRWVKNPYPMASLISSLFNNMLPQVQGQPMEGENTQVEEVRVYDGTEPVPGDPDMTRYVDRFGKTKTVFPPG
notes: also called (PyVP1-3C-WW1)-intein-CBD fusion protein
binding result [1]: binds

B2
binding result (PyVP1-WW150 [2]): binds

B3
koff (PyVP1-WW150 [3]): 0.0018 s⁻¹ | kon (PyVP1-WW150 [3]): 200000 M⁻¹ s⁻¹ | binding result (PyVP1-WW150-D8C): binds | Kd (PyVP1-WW150 [4]): 20 nM | Kd (PyVP1-WW150 [5]): 5 nM

B4: PyVP1-3C-WW[N-14] (other)
chain: MSGWTEHKSPDGRTYYYNTETKQSTWEKPDDGHMSTKACPRPAPVPKLLIKGGMEVLDLVTGPDSVTEIEAFLNPRMGQPPTPESLTEGGQYYGWSRGINLATSDTEDSPGNNTLPTWSMAKLQLPMLNEDLTCDTLQMWEAVSVKTEVVGSGSLLDVHGFNKPTDTVNTKGISTPVEGSQYHVFAVGGEPLDLQGLVTDARTKYKEEGVVTIKTITKKDMVNKDQVLNPISKAKLDKDGMYPVEIWHPDPAKNENTRYFGNYTGGTCTPPVLQFTNTLTTVLLDENGVGPLSKGEGLYLSSVDIMGWRVTRNYDVHHWRGLPRYFKITLRKRWVKNPYPMASLISSLFNNMLPQVQGQPMEGENTQVEEVRVYDGTEPVPGDPDMTRYVDRFGKTKTVFPPG
notes: The range 15-384 follows from 'N-terminus shortened by 14 amino acids'
binding result [6]: binds

From patent US20060252130A1 (ACGT PREGENOMICS, published 2006)
